Measurements reported in patent US20140205597A1 (published 2014).

How the values were obtained:
[1] = target: T1, monoclonal antibody 21-4-3; assay: Biacore, captured 21-4-3
T1 construct: mouse IgG1 heavy chain, kappa light chain; also called mAb21-4-3; produced by hybridoma ABH0015 (LMBP-9680-CB)
Experimental: Binding measurements were performed using a Biacore T100 using a CM5 T120416 sensor chip, with running buffer HBS-EP+, 25° C. […] The anti-mouse IgG used was a polyclonal rabbit anti-mouse IgG antibodies reacting with all IgG subclasses, IgA and IgM (GE Healthcare; Cat#BR-1008-38; Lot#10056316). Immobilisation of the anti-mouse IgG was performed using manual amine coupling using a 7 minute injection of EDC/NHS for activation and a 7 minute injection of 1M ethanolamine HCl pH 8.5 for deactivation (Biacore, amine coupling kit).

[2] = target: T2, purified interference factor(s) from serum of Donor A; assay: Biacore, immobilized interference factor
T2 construct: text names Donors 8, 19 and 30

[3] = target: T3, purified interference factor(s) from serum of Donor B; assay: Biacore, immobilized interference factor
T3 construct: text names Donors 8, 19 and 30

[4] = target: T4, purified interference factor(s) from serum of Donor C; assay: Biacore, immobilized interference factor
T4 construct: text names Donors 8, 19 and 30

B1: SEQ ID NO 43 (bispecific antibody)
chain: DVQLVESGGGLVQPGGSLRLSCAASGFILDYYAIGWFRQAPGKEREGVLCIDASDDITYYADSVKGRFTISRDNSKNTVYLQMNSLRPEDTAVYYCATPIGLSSSCLLEYDYDYWGQGTLVTVSSGGGGSGGGSEVQLLESGGGLVQPGGSLRLSCAASGFTFRSFGMSWVRQAPGKGPEWVSSISGSGSDTLYADSVKGRFTISRDNSKNTLYLQMNSLRPEDTAVYYCTIGGSLSRSSQGTLVTVSSA
notes: Nanobody construct; C-terminal: A
With B1 the “binding vs Reference Sequence (=100%)” value [1] was 3%, the “binding vs Reference Sequence (=100%)” value [2] was 3% and the “binding vs Reference Sequence (=100%)” value [3] was 20%.

B2: SEQ ID NO 42 (VHH)
chain: EVQLVESGGGLVQPGGSLRLSCAASGRTFSYNPMGWFRQAPGKGRELVAAISRTGGSTYYPDSVEGRFTISRDNAKRMVYLQMNSLRAEDTAVYYCAAAGVRAEDGRVRTLPSEYTFWGQGTQVTVSSAAAEVQLVESGGGLVQPGGSLRLSCAASGRTFSYNPMGWFRQAPGKGRELVAAISRTGGSTYYPDSVEGRFTISRDNAKRMVYLQMNSLRAEDTAVYYCAAAGVRAEDGRVRTLPSEYTFWGQGTQVTVSSA
notes: as for B1
For B2, the “binding vs Reference Sequence (=100%)” value [1] was 0%, the “binding vs Reference Sequence (=100%)” value [2] was 1% and the “binding vs Reference Sequence (=100%)” value [3] was 4%.

B3: SEQ ID NO 45 (VHH)
VHH: EVQLVESGGGLVQAGGSLRLSCAASRSIGRLDRMGWYRHRTGEPRELVATITGGSSINYGDFVKGRFTISIDNAKNTVYLQMNNLKPEDTAVYYCNFNKYVTSRDTWGQGTQVTVSS
notes: mutations: P14A, P41T, S62F, S74A, S82bN, R83K, L108Q
For B3, the “binding vs Reference Sequence (=100%)” value [1] was 22% and the “binding vs Reference Sequence (=100%)” value [2] was 0%.

B4: SEQ ID NO 46 (VHH)
VHH: EVQLVESGGGLVQAGGSLRLSCAASRSIGRLDRMGWYRHRTGEPRELVATITGGSSINYGDFVKGRFTISIDNAKNTVYLQMNNLKPEDTAVYYCNFNKYVTSRDTWGQGTQVTVSS
notes: C-terminal tag
B4 was tested, and the “binding vs Reference Sequence (=100%)” value [1] was 2% and the “binding vs Reference Sequence (=100%)” value [2] was 0%.

B5: SEQ ID NO 71 (VHH)
VHH: EVQLVESGGGLVQPGGSLRLSCAASRSIGRLDRMGWYRHRPGEPRELVATITGGSSINYGDSVKGRFTISIDNSKNTVYLQMNSLRPEDTAVYYCNFNKYVTSRDTWGQGTLVTVSG
notes: S113G
For B5, the “binding vs Reference Sequence (=100%)” value [1] was 44%, the “binding vs Reference Sequence (=100%)” value [2] was 88% and the “binding vs Reference Sequence (=100%)” value [3] was 105%. For the same binder, the “binding vs Reference Sequence (=100%)” value [4] was 87%.

B6: SEQ ID NO 68 (VHH)
VHH: EVQLVESGGGLVQAGGSLRLSCAASRSIGRLDRMGWYRHRPGEPRELVATITGGSSINYGDSVKGRFTISIDNSKNTVYLQMNSLRPEDTAVYYCNFNKYVTSRDTWGQGTQVTVSS
notes: P14A, L108Q
In the case of B6, the “binding vs Reference Sequence (=100%)” value [1] is reported as 26%, the “binding vs Reference Sequence (=100%)” value [2] is reported as 38% and the “binding vs Reference Sequence (=100%)” value [3] is reported as 115%. The “binding vs Reference Sequence (=100%)” value [4] was 49%.

B7: SEQ ID NO 66 (VHH)
VHH: EVQLVESGGGSVQPGGSLRLSCAASRSIGRLDRMGWYRHRPGEPRELVATITGGSSINYGDSVKGRFTISIDNSKNTVYLQMNSLRPEDTAVYYCNFNKYVTSRDTWGQGTLVTVSS
notes: L11S
For B7, the “binding vs Reference Sequence (=100%)” value [1] was 48%, the “binding vs Reference Sequence (=100%)” value [2] was 81% and the “binding vs Reference Sequence (=100%)” value [3] was 29%. For the same binder, the “binding vs Reference Sequence (=100%)” value [4] was 84%.

B8: SEQ ID NO 72 (VHH)
VHH: EVQLVESGGGLVQPGGSLRLSCAASRSIGRLDRMGWYRHRPGEPRELVATITGGSSINYGDSVKGRFTISIDNSKNTVYLQMNSLRPEDTAVYYCNFNKYVTSRDTWGQGTLVTVGG
notes: S112G, S113G
B8 was tested, and the “binding vs Reference Sequence (=100%)” value [1] was 45%, the “binding vs Reference Sequence (=100%)” value [2] was 70% and the “binding vs Reference Sequence (=100%)” value [3] was 47%. The “binding vs Reference Sequence (=100%)” value [4] was 56%.

B9: SEQ ID NO 65 (VHH)
VHH: EVQLVESGGGLVQAGGSLRLSCAASRSIGRLDRMGWYRHRPGEPRELVATITGGSSINYGDSVKGRFTISIDNSKNTVYLQMNSLRPEDTAVYYCNFNKYVTSRDTWGQGTLVTVSS
notes: P14A
With B9 the “binding vs Reference Sequence (=100%)” value [1] was 23%, the “binding vs Reference Sequence (=100%)” value [2] was 73% and the “binding vs Reference Sequence (=100%)” value [3] was 121%. For the same binder, the “binding vs Reference Sequence (=100%)” value [4] was 64%.

B10: SEQ ID NO 70 (VHH)
VHH: EVQLVESGGGLVQPGGSLRLSCAASRSIGRLDRMGWYRHRPGEPRELVATITGGSSINYGDSVKGRFTISIDNSKNTVYLQMNSLRPEDTAVYYCNFNKYVTSRDTWGQGTLVQVSS
notes: T110Q
In the case of B10, the “binding vs Reference Sequence (=100%)” value [1] is reported as 106%, the “binding vs Reference Sequence (=100%)” value [2] is reported as 90% and the “binding vs Reference Sequence (=100%)” value [3] is reported as 105%. For the same binder, the “binding vs Reference Sequence (=100%)” value [4] was 98%.

B11: SEQ ID NO 69 (VHH)
VHH: EVQLVESGGGLVQPGGSLRLSCAASRSIGRLDRMGWYRHRPGEPRELVATITGGSSINYGDSVKGRFTISIDNSKNTVYLQMNSLRPEDTAVYYCNFNKYVTSRDTWGQGTQVTVSS
notes: L108Q
B11 was tested, and the “binding vs Reference Sequence (=100%)” value [1] was 106%, the “binding vs Reference Sequence (=100%)” value [2] was 80% and the “binding vs Reference Sequence (=100%)” value [3] was 120%. For the same binder, the “binding vs Reference Sequence (=100%)” value [4] was 84%.

B12: SEQ ID NO 67 (VHH)
VHH: EVQLVESGGGLVQPGGSLRLSCAASRSIGRLDRMGWYRHRPGEPRELVATITGGSSINYGDSVKGRFTISIDNSKNTVYLQMNSLKPEDTAVYYCNFNKYVTSRDTWGQGTLVTVSS
notes: R83K
B12 was tested, and the “binding vs Reference Sequence (=100%)” value [1] was 101%, the “binding vs Reference Sequence (=100%)” value [2] was 102% and the “binding vs Reference Sequence (=100%)” value [3] was 117%. For the same binder, the “binding vs Reference Sequence (=100%)” value [4] was 96%.

B13: SEQ ID NO 80 (VHH)
VHH: EVQLVESGGGLVQPGGSLRLSCAASRSIGRLDRMGWYRHRPGEPRELVATITGGSSINYGDSVKGRFTISIDNSKNTVYLQMNSLRPEDTAVYYCNFNKYVTSRDTWGQGTLVQVGG
notes: T110Q, S112G, S113G
In the case of B13, the “binding vs Reference Sequence (=100%)” value [1] is reported as 51%, the “binding vs Reference Sequence (=100%)” value [2] is reported as 65% and the “binding vs Reference Sequence (=100%)” value [3] is reported as 5%. For the same binder, the “binding vs Reference Sequence (=100%)” value [4] was 58%.

B14: SEQ ID NO 78 (VHH)
VHH: EVQLVESGGGLVRPGGSLRLSCAASRSIGRLDRMGWYRHRPGEPRELVATITGGSSINYGDSVKGRFTISIDNSKNTVYLQMNSLRPEDTAVYYCNFNKYVTSRDTWGQGTLVTVSS
notes: Q13R
B14 was tested, and the “binding vs Reference Sequence (=100%)” value [1] was 1%, the “binding vs Reference Sequence (=100%)” value [2] was 96% and the “binding vs Reference Sequence (=100%)” value [3] was 96%. For the same binder, the “binding vs Reference Sequence (=100%)” value [4] was 100%.

B15: SEQ ID NO 82 (VHH)
VHH: EVQLVESGGGLVQPGGSLRLSCAASRSIGRLDRMGWYRHRPGEPRELVATITGGSSINYGDSVKGRFTISIDNSKNTVYLQMNSLRAEDTAVYYCNFNKYVTSRDTWGQGTLVTVSS
notes: P84A
For B15, the “binding vs Reference Sequence (=100%)” value [1] was 56%, the “binding vs Reference Sequence (=100%)” value [2] was 96% and the “binding vs Reference Sequence (=100%)” value [3] was 80%. The “binding vs Reference Sequence (=100%)” value [4] was 100%.

B16: SEQ ID NO 81 (VHH)
VHH: EVQLVESGGGVVQPGGSLRLSCAASRSIGRLDRMGWYRHRPGEPRELVATITGGSSINYGDSVKGRFTISIDNSKNTVYLQMNSLRPEDTAVYYCNFNKYVTSRDTWGQGTLVTVSS
notes: L11V
For B16, the “binding vs Reference Sequence (=100%)” value [1] was 75%, the “binding vs Reference Sequence (=100%)” value [2] was 94% and the “binding vs Reference Sequence (=100%)” value [3] was 50%. The “binding vs Reference Sequence (=100%)” value [4] was 89%.

B17: SEQ ID NO 38 (bispecific antibody)
chain: EVQLVESGGGLVQPGGSLRLSCAASGFTFSSYAMSWVRQAPGKGLEWVSGIKSSGDSTRYAGSVKGRFTISRDNAKNTLYLQMNSLRPEDTAVYYCAKSRVSRTGLYTYDNRGQGTLVTVSSGGGGSGGGGSGGGGSGGGGSEVQLVESGGGLVQPGGSLRLSCAASGRTFNNYAMGWFRQAPGKEREFVAAITRSGVRSGVSAIYGDSVKDRFTISRDNAKNTLYLQMNSLRPEDTAVYYCAASAIGSGALRRFEYDYSGQGTLVTVSSA
notes: as for B1
For B17, the “binding vs Reference Sequence (=100%)” value [1] was 0%, the “binding vs Reference Sequence (=100%)” value [2] was 9% and the “binding vs Reference Sequence (=100%)” value [3] was 25%. The “binding vs Reference Sequence (=100%)” value [4] was 7%.

B18: SEQ ID NO 47 (VHH)
VHH: EVQLVESGGGLVQPGGSLRLSCAASGSVFKINVMAWYRQAPGKGRELVAGIISGGSTSYADSVKGRFTISRDNAKNTLYLQMNSLRPEDTAVYYCAFITTESDYDLGRRYWGQGTLVTVSS
For B18, the “binding vs Reference Sequence (=100%)” value [1] was 4% and the “binding vs Reference Sequence (=100%)” value [2] was 1%.

B19: SEQ ID NO 48 (VHH)
VHH: EVQLVESGGGLVQPGGSLRLSCIASGLPFSTKSMGWFRQAPGKEREFVARISPGGTSRYYGDFVKGRFAISRDNAKNTTWLQMNSLKAEDTAVYYCASGERSTYIGSNYYRTNEYDYWGTGTQVTVSS
With B19 the “binding vs Reference Sequence (=100%)” value [1] was 3% and the “binding vs Reference Sequence (=100%)” value [2] was 0%.

B20: SEQ ID NO 49 (VHH)
VHH: EVQLLESGGGLVQPGGSLRLSCAASGLPFSTKSMGWFRQAPGKGREFVSRISPGGTSRYYGDFVKGRFTISRDNSKNTLYLQMNSLRAEDTAVYYCASGERSTYIGSNYYRTNEYDYWGQGTLVTVSS
notes: C-terminal tag plus humanizing mutations
In the case of B20, the “binding vs Reference Sequence (=100%)” value [1] is reported as 4% and the “binding vs Reference Sequence (=100%)” value [2] is reported as 0%.
